From paper PMC9381590, “DDX39B drives colorectal cancer progression by promoting the stability and nuclear translocation of PKM2” (Signal Transduction and Targeted Therapy, 2022) come the findings set out here.

B2: purified STUB1 (natural protein, UniProt Q9UNE7 1-303, looked up)
chain: MKGKEEKEGGARLGAGGGSPEKSPSAQELKEQGNRLFVGRKYPEAAACYGRAITRNPLVAVYYTNRALCYLKMQQHEQALADCRRALELDGQSVKAHFFLGQCQLEMESYDEAIANLQRAYSLAKEQRLNFGDDIPSALRIAKKKRWNSIEERRIHQESELHSYLSRLIAAERERELEECQRNHEGDEDDSHVRAQQACIEAKHDKYMADMDELFSQVDEKRKKRDIPDYLCGKISFELMREPCITPSGITYDRKDIEEHLQRVGHFDPVTRSPLTQEQLIPNLAMKEVIDAFISENGWVEDY
notes: STIP1 homology and U-box-containing protein 1 (STUB1); the methods tell only of GST- and His-fused proteins from E. coli BL21 (DE3); source: recombinant, purified

For the test “purified STUB1”, the target named is B2. The test is described as follows: in vitro competitive binding analysis; purified proteins; increasing amounts of DDX39B added to PKM2 (WT or 1-219 aa) and STUB1; western blotting. To be noted: both partners purified. A general note: In western blotting, separated proteins are transferred to a membrane and probed.
The target in test [1] is T1, purified recombinant PKM2 (UniProt P14618 1-531).
T1 construct: pyruvate kinase isoform M2 (PKM2); the methods tell only of GST- and His-fused proteins from E. coli BL21 (DE3); also called PKM2^WT; rPKM2; source: recombinant, purified
T1 sequence (P14618 whole entry, the tested form may be a part, canonical isoform): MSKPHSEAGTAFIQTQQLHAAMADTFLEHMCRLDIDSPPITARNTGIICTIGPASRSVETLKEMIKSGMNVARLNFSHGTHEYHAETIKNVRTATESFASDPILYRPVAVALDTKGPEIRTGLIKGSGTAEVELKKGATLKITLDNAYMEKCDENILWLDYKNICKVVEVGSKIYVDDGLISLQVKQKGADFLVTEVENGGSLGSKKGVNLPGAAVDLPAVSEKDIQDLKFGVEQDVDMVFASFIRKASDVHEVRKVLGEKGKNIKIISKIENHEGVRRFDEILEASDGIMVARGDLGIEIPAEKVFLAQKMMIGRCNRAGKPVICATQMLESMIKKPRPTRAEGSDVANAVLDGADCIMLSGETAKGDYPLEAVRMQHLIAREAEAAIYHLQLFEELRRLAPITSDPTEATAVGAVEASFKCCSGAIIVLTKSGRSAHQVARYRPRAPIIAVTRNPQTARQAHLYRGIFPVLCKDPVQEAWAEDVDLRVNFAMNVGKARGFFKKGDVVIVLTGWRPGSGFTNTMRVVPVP
The test is described as above. To be noted: both partners purified.

B1: purified recombinant PKM2 1-219 aa protein (domain or fragment)
chain: not shown
notes: also called PKM2^1–218,219aa; source: recombinant, purified
Regarding B1, the binding result with purified STUB1 is “binds”.

Consider B2, for which the binding result in test [1] was “binds”.
